Data taken from the supplement of paper PMC10567573.
± gives the standard deviation.

Assay: protein stability index of a GFP-peptide fusion (GPS, HEK-293T) (PSI 1-6); higher = more stable
[1] = treatment: DMSO, c terminus: a fixed tail appended
[2] = treatment: MLN4924 1 uM, 8 h, c terminus: a fixed tail appended
[3] = treatment: DMSO, c terminus: native
[4] = treatment: MLN4924 1 uM, 8 h, c terminus: native
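Also: 24-mer peptide tiles fused after GFP, lentivirally expressed, FACS-sorted into six equal bins by GFP/DsRed ratio, decoded by Illumina sequencing, PSI is the read-weighted mean bin number.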

Sequence | protein stability index [1] | protein stability index [2] | protein stability index [3] | protein stability index [4]
PPRPPPRGTPPRRHSFRKHLYLLR [N4BP2L1] | 3.32 ± 0.35 | 3.56 ± 0.23 | – | –
PQALPEPMQESKAEGNNQAPGEEE [CHGA] | 5.54 ± 0.24 | 5.5 ± 0.35 | – | –
PQERTLTLVDTGIGMTKADLINNL [HSP90AB1] | 3.49 ± 0.33 | 3.67 ± 0.26 | – | –
PQHQAGSDSLLTGMAFFKMREMFF [CNOT7] | 2.13 ± 0.16 | 2.15 ± 0.099 | – | –
PQLGLDGPGEPDVRDGFSATFEKI [PSD2] | 4.73 ± 0.18 | 4.67 ± 0.13 | – | –
PQPDPVFLEALSSRYLGDSGLDDF [SERTAD3] | 4.19 ± 0.47 | 4.08 ± 0.14 | – | –
PRGYFHTFAGDTCQVALNFANEEE [WASL] | 4.43 ± 0.27 | 4.34 ± 0.12 | – | –
PRPNRLFLRQLRASHLGNELEGTE [C2CD2L] | 3.92 ± 0.15 | 4.05 ± 0.26 | – | –
PRRRRPGCYAYRQNPEAIAAAAMY [MYORG] | 2.78 ± 0.19 | 2.9 ± 0.34 | – | –
PRSPECRMIPGQPPASARRLSVPR [IRX6] | 4.47 ± 0.24 | 4.52 ± 0.12 | – | –
PRTRGSWSQPQPLKAPCLNGDTT [RASAL3] | – | – | 3.62 ± 0.36 | 3.5 ± 0.36
PRTSQSEETRVWHRRDGKWQNVHF [CAMK2B] | 3.29 ± 0.3 | 3.39 ± 0.22 | – | –
PSHSDNLLHGLNLLWRKQLFCDVT [KLHL14] | 1.96 ± 0.33 | 2.16 ± 0.3 | – | –
PSMNPDGYEVAAAQGPNKPGYLVG [CPN1] | 4.33 ± 0.19 | 4.25 ± 0.24 | – | –
PSNGRIDIKQLIAKKIKLTAEAEE [SOAT1] | 3.19 ± 0.59 | 3.33 ± 0.31 | – | –
PTMPALFSDHTFRHYAYLRDSLSH [INTS4] | 2.3 ± 0.14 | 2.31 ± 0.12 | – | –
PVGEPVTNVRLQPAATWNLEEKRL [FCHO1] | 4.52 ± 0.27 | 4.63 ± 0.24 | – | –
PVGLVMEYMETGSLEKLLASEPLP [RIPK4] | 3.46 ± 0.48 | 3.13 ± 0.22 | – | –
PVLKRSSESMENINSGYETRRKKG [KMT2E] | 4.87 ± 0.28 | 4.72 ± 0.29 | – | –
PVTPQVGEGRKSRKFSRLSCLRRR [SMG5] | 4.36 ± 0.068 | 4.34 ± 0.12 | – | –
PVTSIGIDNLGLKLEENLQETHSA [SLC35F2] | 5.06 ± 0.19 | 5 ± 0.11 | – | –
PVVSAVWGHCEVTMRYINGLDPEP [SPSB4] | 2.28 ± 0.23 | 2.54 ± 0.53 | – | –

Sequence | protein stability index [1] | protein stability index [2] | protein stability index [3] | protein stability index [4]
PVVSMDLDPQPITDEEEGLIWVVG [PTPRD] | 3.96 ± 0.29 | 4.29 ± 0.48 | – | –
PYPVLFHNIFLLGGSSTSERCLLN [NLN] | 3.23 ± 1.5 | 2.59 ± 0.8 | – | –
QAELSYKKVSEGPPLRLWRSVIEV [DLC1] | 2.19 ± 0.31 | 2.49 ± 0.43 | – | –
QAKILQCYRENTHQTLKCSALATQ [CHCHD3] | 3.21 ± 0.31 | 3.33 ± 0.26 | – | –
QALAGASSGRELGRPKELQPKKLH [ZNF263] | 5.01 ± 0.46 | 4.82 ± 0.14 | – | –
QALEKIFLQKVAQMPQEEVELLPP [BRD3] | 2.63 ± 0.26 | 2.83 ± 0.4 | – | –
QAQQGRSSLVWLFSQLYLYSFISL [MCOLN1] | 2.86 ± 0.46 | 3.09 ± 0.25 | – | –
QDGLPPTWRDFRTLEAFHDTCRQ [MED27] | – | – | 4.16 ± 0.27 | 4.21 ± 0.4
QEAMKRLRGAKAFRLPGLSRRERE [FCHO1] | 3.91 ± 0.25 | 4.13 ± 0.2 | – | –
QEELQIQAAVAAGDVHTVRKMLEQ [ASB7] | 5 ± 0.39 | 4.73 ± 0.21 | – | –
QEHSNSVGGQDTGATWRTSGLLEE [C18orf25] | 5.28 ± 0.27 | 4.96 ± 0.18 | – | –
QFVEGVRMEEIVEGCTGALHILAR [CTNNB1] | 3.12 ± 0.52 | 3.05 ± 0.64 | – | –
QGPTPRYFTWDEVAQRSGCEERWL [FADS1] | 3.43 ± 0.27 | 3.39 ± 0.24 | – | –
QGSLENMSKLLKRQNDILQVVSQG [CD207] | 3.39 ± 0.22 | 3.64 ± 0.22 | – | –
QKLNPGFDLAKGNAGKVNLPKELP [PLAGL1] | 4.27 ± 0.14 | 4.15 ± 0.3 | – | –
QKVLGKALSLIRFPLMTIEEFAAG [BTBD1] | 3.06 ± 0.57 | 2.52 ± 0.38 | – | –
QLKESKSKIDALSSEKLNLQKDLE [CEP70] | 5.03 ± 0.1 | 5.16 ± 0.13 | – | –
QLLSAMGSLCSLWFGASVLSLLEL [SCNN1D] | 3.2 ± 0.61 | 3.19 ± 0.49 | – | –
QLREALKILAERVLILETMIGLYE [EMID1] | 2.31 ± 0.27 | – | – | –
QMMSATAQNREPESVEQLESRIVE [SNX8] | 5.37 ± 0.17 | 5.56 ± 0.24 | – | –
QNFLDPGYPLPKLDMNFSLENREE [ZNF449] | 5.02 ± 0.24 | 4.74 ± 0.29 | – | –
QNQSDSLLALAGAVQRLEGALWGL [SCARA5] | 2.4 ± 0.35 | 2.33 ± 0.32 | – | –

Sequence | protein stability index [1] | protein stability index [2] | protein stability index [3] | protein stability index [4]
QNVARIPEFELLWKDIIHNPQALS [INTS3] | 2.47 ± 0.34 | 2.53 ± 0.3 | – | –
QPWVEVVLALRNMKNLLFSEMWDI [MFSD9] | 2.78 ± 0.66 | 2.44 ± 0.44 | – | –
QPYTCSICRRNFSRRSSLLRHQKL [ZNF75A] | 3.43 ± 0.37 | 3.71 ± 0.35 | – | –
QQGLGASYRTESAQRQACMYASSA [TBX5] | 3.8 ± 0.17 | 3.82 ± 0.2 | – | –
QQMVASGTGAVVTSLFMTPLDVVK [SLC25A39] | 2.8 ± 0.17 | 2.98 ± 0.21 | – | –
QQTGDDDEVDDFEDFIFSHFFGDK [PBXIP1] | 4.71 ± 0.51 | 4.9 ± 0.23 | – | –
QRRRRVENAGGSPSPEPAGRRAAL [RSAD1] | 5.11 ± 0.4 | 5.15 ± 0.27 | – | –
QRTAKGKPVLAKDSSNPYPNFNFN [AASDHPPT] | 3.43 ± 0.45 | 3.74 ± 0.15 | – | –
QSERQRHESQQLATETQALAQRTQ [TEKT4] | 5.43 ± 0.21 | 5.32 ± 0.16 | – | –
QSLPKASPVTTSPTAATTQNPVLS [LCOR] | 4.92 ± 0.19 | 4.85 ± 0.21 | – | –
QSNLEPLSPMTASSFLSFAELFSY [FEM1A] | 2.26 ± 0.26 | 2.42 ± 0.3 | – | –
QSRSFRILAHLTGTEFMQDPDEEH [PDLIM7] | 3.95 ± 0.11 | 4.17 ± 0.07 | – | –
QTEKLLQFQDLTGIESMDQCRHTL [FAF2] | 3.82 ± 0.21 | 3.66 ± 0.33 | – | –
QTFQWVKLPATMPEPVYFHCAAVT [KLHDC10] | 2.28 ± 0.36 | 2.33 ± 0.39 | – | –
QVAKTKQQIEEQRVQVQVVERAQQ [FLOT1] | 5.18 ± 0.16 | 5.32 ± 0.15 | – | –
QVEALAAAGVDHVILAVSYMSQVL [GMPPB] | 2.92 ± 0.65 | 2.48 ± 0.45 | – | –
QVFLDRINRADYCPECYPDNPANR [TOR1AIP2] | 2.76 ± 0.33 | 2.9 ± 0.28 | – | –
QVTCSILAYLPFKLEKSIDSYYRL [PCDHGA10] | 2.79 ± 1.1 | 2.05 ± 0.81 | – | –
QVVSQGWKYFKGNFYYFSLIPKTW [CD207] | 2.14 ± 0.41 | 2.1 ± 0.39 | – | –
QYAMTRAQRVRAAMFPETLDEGMQ [CTNNB1] | 3.76 ± 0.29 | 3.68 ± 0.39 | – | –
QYEVSNFARNGALSTHNWTYWQCG [RSAD1] | 2.43 ± 0.25 | 2.05 ± 0.23 | – | –
